# Data published in article PMC4938799, “LD Motif Recognition by Talin: Structure of the Talin-DLC1 Complex” (Structure(London, England:1993), 2016).
# Entries after “also recorded” stand apart in the source; their conditions may differ.
# Tested on: GFP-DLC1
# Test: GST pull-down of GFP-DLC1 in A549 cells
# Type: cell-based
# Settings: A549 cell extracts, anti-DLC1 immunoblot, listed as wild-type GST-R8
# Description: However, as talin R8 interacts with RIAM ([Goult et al., 2013b]) and paxillin (shown here) in addition to DLC1, we used several approaches to evaluate whether binding of talin R8 to endogenous RIAM or paxillin might have contributed to the observed results. For RIAM, the level of expression in the cell lines used here varied from very low to undetectable. To detect RIAM protein in any of the cell extracts, we had to use an anti-RIAM immunoprecipitation step followed by anti-RIAM immunoblotting. Using these conditions, endogenous RIAM was detected in A549 and H358 cells, but not in 293T cells (Figure S5A).
# Figure S5, related to figure 6. […]
# form a detectable complex with GST-talin R8.
# (A) The expression of endogenous RIAM in cell lines. Cell extracts were subjected to immunoprecipitation followed by immunoblotting with anti-RIAM antibody.
# (B) A complex between GST-talin R8 and endogenous RIAM is undetectable in A549 cells.
# A549 cells were co-transfected with GFP-DLC1 and the GST constructs indicated. Cell extracts were subject to a glutathione bead pull down assay followed by immunoblotting with anti-GST and anti-RIAM antibodies on the same membrane (left). No complex between GST-talin R8 and RIAM could be detected. Under the same conditions, wild-type GST-R8 pulled-down the co-transfected GFP-DLC1; the immunoblot with anti-GST and anti-DLC1 on the same membrane is shown (right). […]
molecule,measurement,value
"GST-R8: GST-tagged talin R8, amino acids 1,453–1,580 (protein, left off: GST, end not stated, kept) NSQAGQQGLVEPTQFARANQAIQMACQSLGEPGCTQAQVLSAATIVAKHTSALCNSCRLASARTANPTAKRQFVQSAKEVANSTANLVKTIKALDGDFTEENRAQCRAATAPLLEAVDNLSAFASNPE",binding of GFP-DLC1,pulled-down; also recorded: did bind GFP-DLC1
